T1: CAPRIN-1 protein on the cell surface of human cancer cell lines (human, UniProt Q14444 2-709)
T1 sequence (looked up): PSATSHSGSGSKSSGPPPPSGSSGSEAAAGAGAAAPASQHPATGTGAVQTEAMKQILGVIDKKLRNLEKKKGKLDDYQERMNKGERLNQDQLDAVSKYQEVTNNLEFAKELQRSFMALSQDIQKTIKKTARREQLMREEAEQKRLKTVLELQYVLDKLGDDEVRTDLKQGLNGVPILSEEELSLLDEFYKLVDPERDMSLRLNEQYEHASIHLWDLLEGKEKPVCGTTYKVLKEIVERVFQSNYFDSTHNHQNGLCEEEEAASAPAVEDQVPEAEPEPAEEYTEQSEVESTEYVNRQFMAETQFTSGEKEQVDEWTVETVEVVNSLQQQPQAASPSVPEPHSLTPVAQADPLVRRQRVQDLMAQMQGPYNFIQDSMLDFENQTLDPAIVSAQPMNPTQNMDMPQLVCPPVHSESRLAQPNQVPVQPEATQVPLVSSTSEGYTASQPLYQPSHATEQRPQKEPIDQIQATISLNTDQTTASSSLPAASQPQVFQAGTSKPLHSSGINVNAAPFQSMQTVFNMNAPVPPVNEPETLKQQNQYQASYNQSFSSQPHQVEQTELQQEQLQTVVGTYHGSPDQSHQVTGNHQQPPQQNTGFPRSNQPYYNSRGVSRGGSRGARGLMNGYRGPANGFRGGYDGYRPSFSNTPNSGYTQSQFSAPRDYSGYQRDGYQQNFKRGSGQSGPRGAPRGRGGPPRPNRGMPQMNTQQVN


Molecular target: T1, CAPRIN-1 protein on the cell surface of …
Experiment: cell-based or functional assay

| Binder | cytotoxic activity (ADCC, chromium 51 release) against MCF7, QG56, HCT-116, MIAPaCa-2 and Caki-2 |
| --- | --- |
| human-mouse chimeric comparative monoclonal antibody 3 (antibody, human IgG1, kappa) heavy: not shown light: RTTSHMDSDIQLTQSPASLSASVGETVTITCRASGNIHNYLAWYQQKQGKSPQLLVYNAKTLADGVPSRFSGSGSGTQYSLKINSLQPEDFGSYYCQHFWSTLTFGGGTKLEIKQSDTVAAPSVFIFPPSDEQLKSGTASVVCLLNNFYPREAKVQWKVDNALQSGNSQESVTEQDSKDSTYSLSSTLTLSKADYEKHKVYACEVTHQGLSSPVTKSFNRGEC | < 5% |
| human-mouse chimeric comparative monoclonal antibody 7 (antibody, human IgG1, kappa, V domains shown) VH: LQESGAELARPGASVKLSCKASGYTFTSYWMQWVKQRPGQGLEWIGAIYPGDGDTRYTQKFKGKATLTADKSSSTAYMQLSSLASEDSAVYYCARGEYGNYFAYWGQGTTVTVSS VL: TSDASLGERVTITCKASQDINSYLSWFQQKPGKSPKTLIYRANRLVDGVPSRFSGSGSGQDYSLTISSLEYEDMGIYYCLQYDEFPLTFGGGTKLEIKQ | < 5% |
| human-mouse chimeric comparative monoclonal antibody 1 (antibody) heavy: not shown light: DIQMTQSPASLSASVGETVTITCRASGNIHNYLAWYQQKQGKSPQLLVYNAKTLADGVPSRFSGSGSGTQYSLKINSLQPEDFGSYYCQHFWSTLTFGAGTKLELKRTVAAPSVFIFPPSDEQLKSGTASVVCLLNNFYPREAKVQWKVDNALQSGNSQESVTEQDSKDSTYSLSSTLTLSKADYEKHKVYACEVTHQGLSSPVTKSFNRGEC | < 5% |
| human-mouse chimeric comparative monoclonal antibody 4 (antibody, human IgG1, kappa, V domains shown) VH: EVQLHQFGAELVKPGASVKISCKASGYTFTDYNMDWVKQSHGKSLEWIGDINPNYDSTSYNQKFKGKATLTVDKSSSTAYMELRSLTSEDTAVYYCARSRSYDYEGFAYWGQGTLVTVSA VL: SGDRVSLSCRASQSISNYLHWYQQKSHESPRLLIKYASQSISGIPSRFSGSGSGTDFTLSINSVETEDFGMYFCQQSNSWPYTFGAGTKLEIKQ | < 5% |

— patent publication US20140154261A1 (TORAY INDUSTRIES, published 2014)
